According to US20230201365A1 (BRIGHT PEAK THERAPEUTICS, published 2023):

Legend:
[1] = biological target: T1, recombinant biotinylated CD20 (human) (human, UniProt P11836 1-297, limits assumed, biotinylated (site not stated)); test: ELISA, antibody coated on the plate, biotinylated CD20 titrated, streptavidin-HRP detection, OD 450 nm
T1 construct: also called hu CD20; B-lymphocyte antigen CD20
T1 sequence: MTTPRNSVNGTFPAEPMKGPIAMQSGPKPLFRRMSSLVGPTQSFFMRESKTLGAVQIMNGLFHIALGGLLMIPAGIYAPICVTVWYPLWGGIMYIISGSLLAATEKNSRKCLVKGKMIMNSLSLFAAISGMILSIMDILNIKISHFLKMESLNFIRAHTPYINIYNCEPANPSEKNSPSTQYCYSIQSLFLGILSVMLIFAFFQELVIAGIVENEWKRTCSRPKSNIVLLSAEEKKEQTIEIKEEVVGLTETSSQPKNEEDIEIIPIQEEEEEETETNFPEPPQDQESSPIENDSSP
Description: (§1) The interaction of the unmodified and of conjugated anti-CD20 antibodies with CD20 were measured by ELISA assay. […] Plates were washed four times with 100 μl of PBS-0.02% Tween20. and blocked with 25 μl of PBS-0.02% Tween20-1% BSA at 37° C. with shaking at 600 RPM, for 1 h. Plates were then washed four times with 100 μl of PBS-0.02% Tween20. 25 μl of recombinant biotinylated CD20 were added in seven-fold serial dilutions starting at 18 nM down to 10 pM into PBS-0.02% Tween20-0.1% BSA and incubated at 37° C. during 2 h. Plates were then washed four times with 100 μl of PBS-0.02% Tween20. 25 ul of Streptavidin-Horseradish peroxidase (#RABHRP3, Merck, Buchs, Switzerland) diluted at 1:500 into PBS-0.02% Tween20-0.1% BSA were added to each well and incubated at room temperature for 30 min. Plates were then washed four times with 100 μl of PBS-0.02% Tween20. Fifty microliters of TMB substrate reagent (#CL07, Merck, Buchs, Switzerland) were added to each well and incubated at 37° C. during 5min After 5 min at 37° C., Horseradish peroxidase reaction is stopped by adding 50 μl/well of 0.5M H₂SO₄ stop solution. ELISA signal is then measured at 450 nm on an ENSPIRE® plate reader from Perkin Elmer (Schwerzenbach, Switzerland).

[2] = biological target: T1, recombinant biotinylated CD20 (human); test: ELISA, antibody coated on plate, biotinylated recombinant CD20 titrated, streptavidin-HRP detection; mean EC50
Description: as §1

[3] = biological target: T2, Recombinant Human Fc gamma RIIIA/CD16a Protein (human, UniProt P08637 17-208); test: ELISA, antibody coated at 2.5 ug/ml, soluble Fc gamma receptor titrated, HRP detection; mean EC50
T2 construct: Bought recombinant protein; also called hu FcγRIII (CD16a); huFcgRIII
T2 sequence (P08637 17-208 limits assumed): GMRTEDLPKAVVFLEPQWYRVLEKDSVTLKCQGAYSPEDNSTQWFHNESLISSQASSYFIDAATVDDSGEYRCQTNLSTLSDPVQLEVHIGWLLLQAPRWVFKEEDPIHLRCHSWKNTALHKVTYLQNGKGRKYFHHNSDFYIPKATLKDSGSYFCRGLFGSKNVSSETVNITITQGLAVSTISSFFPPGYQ
Description: (§2) To analyze Fc Receptor gamma binding test molecules were diluted to 2.5 ug/ml in PBS and plates were coated overnight at 4° C. The next day the assay plates were washed four times with 100 ul of wash buffer: PBS+0.02% Tween 20 and blocked with PBS+1% BSA, for one hour at 37° C., with shaking at 600 RPM. The blocked plates were then washed four times with 100 ul wash buffer. Diluted FcRgamma (Reagents listed, below) was freshly diluted in wash buffer. Plates were then incubated with 25 ul of diluted Fc for two hours with shaking at 600 RPMs, then washed with 100 ul wash buffer, four times. The wells were then incubated with 25 ul of either 1:500 diluted streptavidin-Horseradish peroxidase (HRP) for detection of human FcgR or 1:500 diluted Anti-HIS tag antibody-HRP in wash buffer. The HPR detection molecules were incubated in the wells at room temperature for one hour with shaking at 600 RPMs. Plate wells were washed with 100 ul of wash buffer, four times. Plates were detected using the chromogenic HRP substrate 3,3′,5,5;-tetramethylbenzidine (TMB). Samples were read using a spectrophotometer plate reader with OD set to 450 nm. Reagents: Recombinant Mouse Fc gamma RI/CD64 Protein, CF R&D Systems #2074-FC-050; Recombinant Human Fc gamma RI/CD64 Protein, CF R&D Systems #1257-FC-050; Recombinant Mouse Fc gamma RIII/CD16 Protein, CF R&D Systems #1960-FC-050; Recombinant Human Fc gamma RIIA/CD32a (H167) Protein, CF R&D Systems #9595-CD-050; Recombinant Mouse Fc gamma R4/CD16-2 Protein, CF R&D Systems #1974-CD-050; Recombinant Human Fc gamma RIIIA/CD16a Protein, CF R&D Systems #4325-FC-050; Recombinant Human Fc gamma RIIB/CD32b Avi-tag Protein, CF R&D Systems #AVI1875-050; Recombinant Mouse Fc gamma RIIB/CD32b Protein, CF R&D Systems #1460-CD-050; His Tag Horseradish Peroxidase-conjugated Antibody, R&D Systems #MAB050H; Streptavidin-HRP, Sigma #RABHRP3-600 µL.

[4] = biological target: T3, Recombinant Human Fc gamma RIIB/CD32b Avi-tag Protein (human, UniProt P31994 46-217); test: as above
T3 construct: Bought recombinant protein with Avi-tag; also called hu FcγRIIb (CD32b); human CD32b
T3 sequence (looked up): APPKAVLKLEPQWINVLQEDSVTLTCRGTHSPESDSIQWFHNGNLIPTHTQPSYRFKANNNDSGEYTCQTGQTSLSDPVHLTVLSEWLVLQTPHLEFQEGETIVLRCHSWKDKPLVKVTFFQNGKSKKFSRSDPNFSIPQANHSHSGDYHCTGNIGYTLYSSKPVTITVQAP
Description: as §2

[5] = biological target: T4, Recombinant Human Fc gamma RIIA/CD32a (H167) Protein (human, UniProt P12318 36-218); test: as above
T4 construct: Bought recombinant protein; H167 variant as printed; also called hu FcγRIIa (CD32a); human CD32a
T4 sequence (looked up): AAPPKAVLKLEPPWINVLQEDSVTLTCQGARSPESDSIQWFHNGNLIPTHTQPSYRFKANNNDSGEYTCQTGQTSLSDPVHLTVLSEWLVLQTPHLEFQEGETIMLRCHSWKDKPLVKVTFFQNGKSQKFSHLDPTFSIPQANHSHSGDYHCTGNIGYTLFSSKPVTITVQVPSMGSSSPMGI
Description: as §2

[6] = biological target: T5, Recombinant Human Fc gamma RI/CD64 Protein (human, UniProt P12314 16-288); test: as above
T5 construct: Bought recombinant protein; also called hu FcγRI (CD64)
T5 sequence (P12314 16-288 limits assumed): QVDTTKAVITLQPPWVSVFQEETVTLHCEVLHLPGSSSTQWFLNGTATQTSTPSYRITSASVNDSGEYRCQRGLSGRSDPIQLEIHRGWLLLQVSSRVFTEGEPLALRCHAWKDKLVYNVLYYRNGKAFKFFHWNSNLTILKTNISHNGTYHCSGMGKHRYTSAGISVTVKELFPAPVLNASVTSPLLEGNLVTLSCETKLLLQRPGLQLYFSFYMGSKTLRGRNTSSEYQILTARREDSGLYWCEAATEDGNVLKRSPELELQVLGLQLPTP
Description: as §2

[7] = biological target: T6, Recombinant Mouse Fc gamma RIII/CD16 Protein (mouse, UniProt P08508 31-215); test: as above
T6 construct: Bought recombinant protein; also called mu FcγRIII (CD16); murine CD16
T6 sequence (looked up): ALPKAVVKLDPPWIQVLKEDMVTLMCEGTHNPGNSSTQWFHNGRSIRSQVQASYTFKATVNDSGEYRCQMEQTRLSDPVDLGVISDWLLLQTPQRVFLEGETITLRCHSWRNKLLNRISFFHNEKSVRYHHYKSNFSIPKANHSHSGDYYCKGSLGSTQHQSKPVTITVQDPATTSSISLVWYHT
Description: as §2

[8] = biological target: T7, Recombinant Mouse Fc gamma RI/CD64 Protein (mouse, UniProt P26151 25-297); test: as above
T7 construct: Bought recombinant protein; also called mu FcγRI (CD64); murine CD64
T7 sequence (looked up): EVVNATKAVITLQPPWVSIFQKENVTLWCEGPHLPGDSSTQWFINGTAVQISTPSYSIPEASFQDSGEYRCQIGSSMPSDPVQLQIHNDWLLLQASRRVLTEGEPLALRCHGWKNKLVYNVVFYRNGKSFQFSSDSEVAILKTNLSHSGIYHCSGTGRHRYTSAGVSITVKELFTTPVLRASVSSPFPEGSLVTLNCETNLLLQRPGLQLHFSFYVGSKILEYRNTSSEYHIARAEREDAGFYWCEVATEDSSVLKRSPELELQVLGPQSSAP
Description: as §2

EC50 (read off the curve) [1]: ~0.04 nM | EC50 [2]: 0.08 nM | EC50 [3]: 185 nM | EC50 [4]: 880 nM | EC50 [5]: 740 nM | EC50 [6]: 0.23 nM | EC50 [7]: 133 nM | EC50 [8]: 35 nM
B1: biosimilar Rituximab (unconjugated parent anti-CD20 antibody) (antibody, human IgG1, kappa)
heavy: not shown
light: QIVLSQSPAILSASPGEKVTMTCRASSSVSYIHWFQQKPGSSPKPWIYATSNLASGVPVRFSGSGSGTSYSLTISRVEAEDAATYYCQQWTSNPPTFGGGTKLEIKRTVAAPSVFIFPPSDEQLKSGTASVVCLLNNFYPREAKVQWKVDNALQSGNSQESVTEQDSKDSTYSLSSTLTLSKADYEKHKVYACEVTHQGLSSPVTKSFNRGEC
notes: The antibody tested is a biosimilar of rituximab; also called aCD20 AB; parent antibody
